Assay results: patent US20210147519A1 (Regeneron, published 2021)
Numbering of substitutions follows the chain as printed.

B1: H1H20634D (bispecific antibody, V domains shown)
VH 1: EVQLVESGGGLVQPGRSLRLSCTTSGFTFDDYAMHWVRQVPGQGLEWVAGLSWNSDTIGYADSVKGRFTISRDNAKNSLYLQMKSLKAEDTALYYCTKDFYHSLNNWNYYYFDYWGQGTLVTVSS
VH 2: QVQLVESGGGVVQPGRSLRLSCVASGFTFSSYGFHWVRQAPGKGLEWVAVIWYDGSNEGYVDSVRGRFTISRDFSKNTLYLQMNSLRIEDTAVYYCARRGDYYIMDVWGQGTTVTVSS
VL: not shown
notes: also called anti-IsdB x anti-C1q bispecific antibody
B2: H1H20636D (bispecific antibody, V domains shown)
VH 1: QLQLQESGPGLVKPSETLSLTCTVSGGSISSSSYYWVWIRQPPGKGLEWIGNIYFSGSTYYNPSLKSRVTITVDTSKNQFSLKMTSVTAADTAVYYCARPFYGSRGDYYYGMDVWGQGTTVTVSS
VH 2: EIVLTQSPGTLSLSPGERATLSCRASQNVRSGYLAWYQQKPGQAPRLLIYGTSTRVTGIPDRFSGFGSGTDFTLTISRLEPEDFAVYYCQQYGNSPLFTFGGGTKVEIK
VL: not shown
notes: as for B1
B3: H1H20640D (bispecific antibody, V domains shown)
VH 1: B2 VH 1
VH 2: EVQLVQSGPEVKKPGESLKISCKGSGYNFLGYWIGWVRQMPEKGLEWMAFIYPGDSDFRYSPSFQGQVTISVDRSVTTAYLHWSSLKASDTGIYFCVRQTGNGMDVWGQGTTVTVSS
VL: not shown
notes: as for B1
B4: H1H20646D (bispecific antibody, V domains shown)
VH 1: B2 VH 1
VH 2: EVQLVQSGAEVRKPGESLKISCKGSGFSFTSYWIGWVRQMPGKGLEWMGIIFPADSDTRYSPSFQGQVTISADKSINTAYLQWRSLKVSDTAMYYCTKLQYWYFDLWGRGTLVTVSS
VL: not shown
notes: as for B1
B5: H1H20643D (bispecific antibody, V domains shown)
VH 1: B2 VH 1
VH 2: EVQLVQSGAEVKKPGDSLKISCKGSGYSFTTYWIGWVRQMPGKGLEWMGIIFPGDSDTRYSPSFQGQVTISADKSINTAYLQWSSLKASDTAIYYCARHNRWVADYWGQGTLVTVSS
VL: not shown
notes: as for B1
B6: H1H20645D (bispecific antibody, V domains shown)
VH 1: B2 VH 1
VH 2: EVQLVQSGPEVKKPGESLKIACKASGYSFTSYWIGWVRQMPGKGLEWMGIIFPADSDTRYSPSFQGQVTISADKSITTAYLQWRSLQASDTAKYYCVRHVRWSGENWGQGTLVTVSS
VL: not shown
notes: as for B1
B7: H1H20644D (bispecific antibody, V domains shown)
VH 1: B2 VH 1
VH 2: QVQLVESGGGVVQPGRSLRLSCATSGFTFSSYGMHWVRQAPGKGLEWVALIWYDRNNEYYADSVKGRFTISRDNSKNTLYLQMNSLRAEDTAVYYCARGEWEMDYWGQGTLVTVSS
VL: not shown
notes: as for B1
B8: H1H20639D (bispecific antibody, V domains shown)
VH 1: B2 VH 1
VH 2: QVQLVESGGGVVQPGRSLRLSCAASGFTFSSYGMHWVRQAPGKGLEWVTNIWYDGNNKYYTDSVKGRFTISRDNSKNTLYLQMNSLTAEDTAVYYCARDGDYYVMDVWGQGTTVTVSS
VL: not shown
notes: as for B1
B9: H1H20647D (bispecific antibody, V domains shown)
VH 1: B2 VH 1
VH 2: B8 VH 2 with T49A, N50L, N56S, Y60F, T61A, N74I, T87R, V104G
VL: not shown
notes: as for B1

Columns and labels:
[1] = biological target: T1, Recombinant bacterial IsdB expressed with a hexahistidine tag (IsdB-6xHis; REGN2655) (Staphylococcus aureus, UniProt A6QG30 42-613); test: SPR Biacore, captured Ab, IsdB-6xHis analyte, 25C
[2] = biological target: T1, Recombinant bacterial IsdB expressed …; test: SPR Biacore, captured Ab, IsdB-6xHis analyte, 37C
[3] = biological target: T2, IsdB expressed on the surface of S. aureus Wood 46 (Staphylococcus aureus); test: ELISA on plate-coated S. aureus Wood 46
T2 construct: whole, on cells
Procedure: Briefly, S. aureus Wood 46 was grown in RPMI overnight, washed in PBS and adjusted to an OD₆₀₀ of 0.25. MaxiSorp 96 well microtiter plates were coated overnight with 100 μl of S. aureus culture per well. Plates were washed and blocked with 3% BSA. […] Anti-human HRP conjugated secondary antibody was added to washed plates. Luminescence reagents (SuperSignal Pico) were then added to the wells and signal was detected in a plate reader (Victor X3 plate reader, Perkin Elmer) immediately. Luminescence values were analyzed by a four-parameter logistic equation over a 7-point response curve (GraphPad Prism) to determine the binding EC₅₀, of the antibodies.

[4] = biological target: T3, native human complement component C1q protein purified from human serum (Quidel) (human, UniProt P02745 23-245; P02746 28-253; P02747 29-245); test: competition ELISA, 6 nM biot-hC1q, competitor plate-coated hIgG2-k
T3 construct: the protein assayed was bought native serum C1q (Quidel); no signal peptide limits are stated; also called hC1q; human C1q

[5] = biological target: T3, native human complement component C1q …; test: SPR Biacore, captured Ab, hC1q analyte, 37C
[6] = biological target: T3, native human complement component C1q …; test: cell-based or functional assay
[7] = biological target: T3, native human complement component C1q …; test: competition ELISA, 30 pM biot-hC1q, competitor plate-coated hIgG1-k
[8] = biological target: T3, native human complement component C1q …; test: competition ELISA, 30 pM biot-hC1q, competitor plate-coated hIgG3-k
[9] = biological target: T3, native human complement component C1q …; test: SPR Biacore, captured Ab, hC1q analyte, 25C
[10] = biological target: T3, native human complement component C1q …; test: competition ELISA, 6 nM biot-hC1q, competitor plate-coated hIgM
[11] = biological target: T3, native human complement component C1q …; test: cell-based or functional assay; remark: listed apart in the source
[12] = biological target: T3, native human complement component C1q …; test: cell-based or functional assay; remark: listed apart in the source

T1 sequence (A6QG30 42-613, tags left off): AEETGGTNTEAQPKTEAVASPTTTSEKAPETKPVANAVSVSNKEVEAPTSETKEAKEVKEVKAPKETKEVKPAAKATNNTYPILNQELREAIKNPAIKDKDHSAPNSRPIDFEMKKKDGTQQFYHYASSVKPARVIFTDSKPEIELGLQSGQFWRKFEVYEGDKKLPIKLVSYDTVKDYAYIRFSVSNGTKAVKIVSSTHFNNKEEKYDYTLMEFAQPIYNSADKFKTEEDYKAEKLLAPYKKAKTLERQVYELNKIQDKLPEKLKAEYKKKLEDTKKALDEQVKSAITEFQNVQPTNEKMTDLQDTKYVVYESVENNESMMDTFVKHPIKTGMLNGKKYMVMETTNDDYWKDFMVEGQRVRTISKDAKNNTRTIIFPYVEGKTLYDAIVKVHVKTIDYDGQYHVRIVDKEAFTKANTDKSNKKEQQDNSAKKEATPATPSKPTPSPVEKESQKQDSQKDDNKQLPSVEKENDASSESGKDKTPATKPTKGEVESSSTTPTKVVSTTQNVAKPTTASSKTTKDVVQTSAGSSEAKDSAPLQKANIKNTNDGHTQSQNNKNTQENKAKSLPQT
T2 sequence (Q2FZF0 41-613): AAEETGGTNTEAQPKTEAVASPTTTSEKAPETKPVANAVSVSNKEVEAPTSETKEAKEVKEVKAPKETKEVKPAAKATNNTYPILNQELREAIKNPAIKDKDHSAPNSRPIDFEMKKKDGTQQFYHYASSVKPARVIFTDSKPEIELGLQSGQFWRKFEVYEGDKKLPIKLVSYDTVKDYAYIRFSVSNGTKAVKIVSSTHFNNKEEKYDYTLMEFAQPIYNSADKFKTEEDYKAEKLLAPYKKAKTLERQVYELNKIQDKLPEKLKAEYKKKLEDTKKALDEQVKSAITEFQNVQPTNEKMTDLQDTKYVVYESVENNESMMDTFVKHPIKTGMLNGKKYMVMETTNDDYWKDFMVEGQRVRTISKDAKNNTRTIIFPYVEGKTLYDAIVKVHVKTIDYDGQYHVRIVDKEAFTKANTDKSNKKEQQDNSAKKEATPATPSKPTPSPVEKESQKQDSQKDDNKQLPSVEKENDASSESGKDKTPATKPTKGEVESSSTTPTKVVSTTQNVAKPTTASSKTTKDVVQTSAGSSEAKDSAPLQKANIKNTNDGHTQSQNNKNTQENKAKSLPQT
T3 sequence (P02745 23-245 limits assumed, chain 1 of 3): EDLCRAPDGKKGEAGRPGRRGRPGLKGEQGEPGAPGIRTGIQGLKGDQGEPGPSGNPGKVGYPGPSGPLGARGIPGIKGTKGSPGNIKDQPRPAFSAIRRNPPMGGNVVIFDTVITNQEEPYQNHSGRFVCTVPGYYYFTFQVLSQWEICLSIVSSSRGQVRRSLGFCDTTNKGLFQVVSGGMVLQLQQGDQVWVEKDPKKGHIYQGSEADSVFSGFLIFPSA
T3 sequence (P02746 28-253 limits assumed, chain 2 of 3): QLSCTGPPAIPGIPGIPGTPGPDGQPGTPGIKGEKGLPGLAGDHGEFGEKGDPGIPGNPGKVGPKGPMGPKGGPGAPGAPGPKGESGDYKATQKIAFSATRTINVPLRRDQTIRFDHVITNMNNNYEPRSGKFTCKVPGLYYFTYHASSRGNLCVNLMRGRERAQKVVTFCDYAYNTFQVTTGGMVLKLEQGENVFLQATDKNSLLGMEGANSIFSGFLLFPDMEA
T3 sequence (P02747 29-245 limits assumed, chain 3 of 3): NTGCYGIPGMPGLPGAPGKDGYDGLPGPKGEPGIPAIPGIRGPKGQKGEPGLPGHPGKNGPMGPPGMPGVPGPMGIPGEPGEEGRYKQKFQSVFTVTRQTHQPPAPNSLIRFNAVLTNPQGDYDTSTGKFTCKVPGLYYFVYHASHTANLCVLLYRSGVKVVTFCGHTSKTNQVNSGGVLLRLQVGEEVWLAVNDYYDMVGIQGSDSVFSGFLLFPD

Binder | Kd [1] [nM] | koff [1] [s⁻¹] | kon [1] [M⁻¹ s⁻¹] | t½ [1] [min] | Kd [2] [nM] | koff [2] [s⁻¹] | kon [2] [M⁻¹ s⁻¹] | t1/2 [2] [min] | EC50 [3] [nM] | % Blockade with 600 nM bispecific Ab [4] [%] | Kd [5] [nM] | koff [5] [s⁻¹] | kon [5] [M⁻¹ s⁻¹] | t1/2 [5] [min] | C1q deposition on S. aureus Cowan I EC50 [6] [nM] | % Blockade with 30 nM bispecific Ab [7] [%] | % Blockade with 30 nM bispecific Ab [8] [%] | Kd [9] [nM] | koff [9] [s⁻¹] | kon [9] [M⁻¹ s⁻¹] | also measured
B1 | 2.65 | 0.000296 | 112000 | 39 | 3.81 | 0.000573 | 150000 | 20.2 | 1.04 | – | – | – | – | – | – | – | – | – | – | – | –
B2 | 4.98 | 0.000378 | 75800 | 30.6 | 17.4 | 0.00144 | 82800 | 8.04 | 9.52 | 20 | 2.73 | 0.0179 | 6.57e+06 | 0.64 | 8.54 | -29 | -11 | 2.12 | 0.0102 | 4.81e+06 | t½ [9]: 1.14 min; % Blockade with 600 nM bispecific Ab [10]: 11%; Classical Pathway hemolysis assay % inhibition [11]: 0%
B3 | 9.36 | 0.000553 | 59100 | 20.9 | 17.2 | 0.00142 | 82800 | 8.13 | 18 | – | – | – | – | – | – | – | – | – | – | – | –
B4 | 9.74 | 0.000433 | 44500 | 26.7 | 18.5 | 0.0015 | 80700 | 7.72 | 12.9 | – | – | – | – | – | – | – | – | – | – | – | –
B5 | 9.42 | 0.000555 | 58900 | 20.8 | 18.5 | 0.00148 | 79900 | 7.81 | 10.1 | – | – | – | – | – | – | – | – | – | – | – | –
B6 | 9.95 | 0.000551 | 55400 | 21 | 19.1 | 0.00155 | 81200 | 7.43 | 11.9 | 87 | 0.88 | 0.0317 | 3.6e+07 | 0.36 | 0.298 | 94 | 87 | 0.158 | 0.00452 | 2.86e+07 | IC50 [4]: 18 nM; IC50 [7]: 0.84 nM; IC50 [8]: 5.3 nM; t½ [9]: 2.56 min; % Blockade with 600 nM bispecific Ab [10]: 95%; IC50 [10]: 13 nM; inhibition of CDC of Daudi cells, IC50 [M] [12]: 3.4e-08 M; inhibition of CDC of Daudi cells, Max % Inhibition [12]: ≥ 99%
B7 | 11 | 0.000554 | 50300 | 20.8 | 18.2 | 0.0015 | 82500 | 7.7 | 12.6 | 81 | 0.924 | 0.0276 | 2.98e+07 | 0.42 | 1.12 | 66 | 36 | 0.232 | 0.00624 | 2.69e+07 | IC50 [4]: 63 nM; IC50 [7]: 24 nM; t½ [9]: 1.85 min; % Blockade with 600 nM bispecific Ab [10]: 75%; IC50 [10]: 43 nM; inhibition of CDC of Daudi cells, IC50 [M] [12]: > 1e-07 M; inhibition of CDC of Daudi cells, Max % Inhibition [12]: 88%
B8 | 11.3 | 0.000562 | 49800 | 20.5 | 18.5 | 0.00148 | 80200 | 7.81 | 13.3 | 82 | 0.664 | 0.00859 | 1.29e+07 | 1.34 | 2.06 | 64 | 33 | 0.655 | 0.00612 | 9.35e+06 | IC50 [4]: 70 nM; t½ [9]: 1.89 min; % Blockade with 600 nM bispecific Ab [10]: 86%; IC50 [10]: 42 nM; inhibition of CDC of Daudi cells, IC50 [M] [12]: > 1e-07 M; inhibition of CDC of Daudi cells, Max % Inhibition [12]: 70%
B9 | 12.3 | 0.000565 | 46000 | 20.4 | 21.5 | 0.00154 | 71500 | 7.51 | 7.3 | 80 | 0.439 | 0.00576 | 1.31e+07 | 2 | 0.587 | 85 | 60 | 0.368 | 0.0034 | 9.25e+06 | IC50 [4]: 32 nM; IC50 [7]: 9 nM; t½ [9]: 3.39 min; % Blockade with 600 nM bispecific Ab [10]: 91%; IC50 [10]: 25 nM; inhibition of CDC of Daudi cells, IC50 [M] [12]: > 1e-07 M; inhibition of CDC of Daudi cells, Max % Inhibition [12]: 82%
